# Assay results reported in patent publication US20230295289A1 (INTERVET, published 2023).
# T1: cIL-22-His (canine IL-22 with a His Tag) (canine)
# T1 construct: also called cILHIS
# T1 chain: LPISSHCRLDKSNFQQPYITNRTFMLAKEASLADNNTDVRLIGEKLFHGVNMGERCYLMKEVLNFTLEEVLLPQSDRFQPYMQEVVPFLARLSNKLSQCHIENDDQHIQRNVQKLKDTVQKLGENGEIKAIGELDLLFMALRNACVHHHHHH
# Experiments:
# [1] = biological target: canine IL-31RA ECD-10His (canine); assay: ELISA: IL-31RA ECD coated at 10 ug/mL, biotinylated IL-31 titrated 3-fold from 10 ug/mL, HRP-streptavidin
# [2] = biological target: T1, cIL-22-His (canine IL-22 with a His Tag); assay: ELISA: cIL-22-His coated, Fc fusion titrated from 10 ug/mL, anti-dog IgG (Fc)-HRP
# Chain of canine IL-31RA ECD-10His (canine) (chain, as listed by the source limits assumed): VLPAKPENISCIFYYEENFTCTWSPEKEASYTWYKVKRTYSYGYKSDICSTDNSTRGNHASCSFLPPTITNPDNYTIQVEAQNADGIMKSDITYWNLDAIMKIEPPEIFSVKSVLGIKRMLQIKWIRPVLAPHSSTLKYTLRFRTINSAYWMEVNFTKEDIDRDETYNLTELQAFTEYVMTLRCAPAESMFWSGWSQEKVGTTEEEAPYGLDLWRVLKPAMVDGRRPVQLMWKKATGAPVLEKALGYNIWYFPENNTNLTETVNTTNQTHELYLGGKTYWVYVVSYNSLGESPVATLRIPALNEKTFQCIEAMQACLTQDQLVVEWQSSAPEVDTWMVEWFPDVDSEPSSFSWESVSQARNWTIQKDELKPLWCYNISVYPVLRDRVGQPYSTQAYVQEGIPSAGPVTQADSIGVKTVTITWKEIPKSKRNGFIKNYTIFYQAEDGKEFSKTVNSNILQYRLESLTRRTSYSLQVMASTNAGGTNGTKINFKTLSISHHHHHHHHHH
EC50 [1] [µg/mL],binding result [2],Molecule
0.368,–,biotinylated canine IL-31 (ligand)
–,binds,"canine IL-22RA1-FcB fusion protein (extracellular domain of canine IL-22RA1 with canine IgG-B Fc) (Fc fusion, also called cIL-22RA1-Fc fusion protein; canine IL-22RA1-Fc fusion protein) AEDTSDLLQYVKFQSSNFENILTWDSGLESAPDVVYSVEYKTYGKKEWLAKEGCQRITRKSCNLTTETGNHTEHYYARVTAVSAGGRSATKMTDRFSSMQQTTIKPPDVTCIPKVRSIQMIVHPTSTPIHAEDGHRLTLEDIFQDLFYRLELQVNHTYQMHLGGKQRDYEFIGLSPDTEFLGTITISVPNFFKESAPYVCRVKTLPDRTWTGGGGSGGGGSPKRENGRVPRPPDCPKCPAPEMLGGPSVFIFPPKPKDTLLIARTPEVTCVVVALDPEDPEVQISWFVDGKQMQTAKTQPREEQFAGTYRVVSVLPIGHQDWLKGKQFTCKVNNKALPSPIERTISKARGQAHQPSVYVLPPSREELSKNTVSLTCLIKDFFPPDIDVEWQSNGQQEPESKYRTTPPQLDEDGSYFLYSKLSVDKSRWQRGDTFICAVMHEALHNHYTQESLSHSPG"
–,binds,"canine IL-22BP-FcB fusion protein (canine IL-22BP (IL-22RA2) with canine IgG-B Fc) (Fc fusion, also called cIL-22BP-Fc fusion protein; canine IL-22BP-Fc fusion protein) TQSAYESLKPQRVHFQSRNFHNILHWQPGRACTSNGSVYFVQYKMYGQRQWKNKEDCWGILECFCDLTNETSDIQEPYYGRVRTTSAGIHSGWTMTQRFTPWWETKIDPPIINITQVNGSLLVILHAPSLPYRDQKGKNVSIENYYELLYRVFIINNSLEKEQKVYEGAHRIVEIGALAPHTGYCVVAEMYQPMLDRRSPRSEERCMELPGGGGSGGGGSPKRENGRVPRPPDCPKCPAPEMLGGPSVFIFPPKPKDTLLIARTPEVTCVVVALDPEDPEVQISWFVDGKQMQTAKTQPREEQFAGTYRVVSVLPIGHQDWLKGKQFTCKVNNKALPSPIERTISKARGQAHQPSVYVLPPSREELSKNTVSLTCLIKDFFPPDIDVEWQSNGQQEPESKYRTTPPQLDEDGSYFLYSKLSVDKSRWQRGDTFICAVMHEALHNHYTQESLSHSPG"
